The source of these data is patent US20230348575A1.

Where two headings read alike, the source gives them in different places.

Assay [1] has as its target RSV F peptide 51-66 presented to CD4+ T cells of BALB/c mice (RSV, A2 strain).
The target of assay [2] is RSV F peptides F85-93 and F249-258 presented to CD8+ T cells of BALB/c mice (RSV, A2 strain).
Assay [3] has the same target. This is another data set of the same source.
The target in assay [4] is RSV F peptide 51-66 presented to CD4+ T cells of BALB/c mice (RSV, A2 strain). The source holds these as a separate data set.

“Splenic T cells of BALB/c mice vaccinated with A317 RNA (10 ug) with electroporation, day 49 (Example 7B, 10-1001) (cells without a defined receptor)” had a CD4+ CD8- splenic T cells: % cytokine-positive (TNFa+), intracellular cytokine staining in assay [1] of 0.05%. The same substance had a CD8+ CD4- splenic T cells: % cytokine-positive (IFNg+), intracellular cytokine staining in assay [2] of 0.85%.
The substance “Splenic T cells of BALB/c mice vaccinated with A317 RNA formulated with CNE17, day 49 (Example 7B, 10-1001) (cells without a defined receptor)” showed a CD4+ CD8- splenic T cells: % cytokine-positive (TNFa+), intracellular cytokine staining, 1 ug in assay [1] of 0.05%. In assay [2], this substance had a CD8+ CD4- splenic T cells: % cytokine-positive (IFNg+), intracellular cytokine staining, 1 ug of 1.25%.
The like results for “Splenic T cells of BALB/c mice vaccinated with A317 RNA in liposomes RV01(01), day 49 (Example 7B, 10-1001) (cells without a defined receptor)” were, in that order, 0.09% and 3.69%.
In turn, “Splenic T cells of BALB/c mice vaccinated with A317 RNA in liposomes RV01(01), day 49 (Example 7C, 10-1018) (cells without a defined receptor)” returned a CD8+ CD4- splenic T cells: % cytokine-positive (IFNg+), intracellular cytokine staining, 10 ug in assay [3] of 3.32%. Besides, the CD4+ CD8- splenic T cells: % cytokine-positive (TNFa+), intracellular cytokine staining, 1 ug in assay [4] was determined as 0.09%.
Consider “Splenic T cells of BALB/c mice vaccinated with VRPs expressing RSV-F (1E6 IU), day 49 (Example 7B, 10-1001) (cells without a defined receptor)”, for which the CD4+ CD8- splenic T cells: % cytokine-positive (TNFa+), intracellular cytokine staining in assay [1] turned out to be 0.1%. Also, the CD8+ CD4- splenic T cells: % cytokine-positive (IFNg+), intracellular cytokine staining in assay [2] came out at 3.48%.
In assay [3], “Splenic T cells of BALB/c mice vaccinated with VRPs expressing RSV-F (1E6 IU), day 49 (Example 7C, 10-1018) (cells without a defined receptor)” had a CD8+ CD4- splenic T cells: % cytokine-positive (IFNg+), intracellular cytokine staining of 2.45%. Besides, in assay [4], the CD4+ CD8- splenic T cells: % cytokine-positive (TNFa+), intracellular cytokine staining is 0.07%.
Substance “Splenic T cells of BALB/c mice vaccinated with naked A317 RNA (1 ug), day 49 (Example 7B, 10-1001) (cells without a defined receptor)” came in with a CD4+ CD8- splenic T cells: % cytokine-positive (TNFa+), intracellular cytokine staining in assay [1] of 0.03%. For the same substance, in assay [2], the CD8+ CD4- splenic T cells: % cytokine-positive (IFNg+), intracellular cytokine staining worked out at 0.74%.
The substance “Splenic T cells of BALB/c mice vaccinated with naked A317 RNA, day 49 (Example 7C, 10-1018) (cells without a defined receptor)” showed a CD8+ CD4- splenic T cells: % cytokine-positive (IFNg+), intracellular cytokine staining, 1 ug in assay [3] of 1.68%. The CD4+ CD8- splenic T cells: % cytokine-positive (TNFa+), intracellular cytokine staining, 1 ug in assay [4] came to 0.03%.
In turn, “Splenic T cells of unvaccinated BALB/c mice, day 49 (Example 7B, 10-1001) (cells without a defined receptor)” displayed a CD4+ CD8- splenic T cells: % cytokine-positive (TNFa+), intracellular cytokine staining in assay [1] of 0%. For the same substance, in assay [2], the CD8+ CD4- splenic T cells: % cytokine-positive (IFNg+), intracellular cytokine staining was 0.01%.
In turn, “Splenic T cells of unvaccinated BALB/c mice, day 49 (Example 7C, 10-1018) (cells without a defined receptor)” had a CD8+ CD4- splenic T cells: % cytokine-positive (IFNg+), intracellular cytokine staining in assay [3] of 0.01%. For the same substance, in assay [4], the CD4+ CD8- splenic T cells: % cytokine-positive (TNFa+), intracellular cytokine staining was 0.01%.
